B1: THAP1; numbered along this chain (parent)
chain: MVQSCSAYGCKNRYDKDKPVSFHKFPLTRPSLCKEWEAAVRRKNFKPTKYSSICSEHFTPDCFKRECNNKLLKENAVPTIFLCTEPHDKKEDLLEPQEQLPPPPLPPPVSQVDAAIGLLMPPLQTPVNLSVFCDHNYTVEDTMHQRKRIHQLEQQVEKLRKKLKTAQQRCRRQERQLEKLKEVVHFQKEKDDVSERGYVILPNDYFEIVEVPA

Variants of: B1
Assay: THAP1 transcriptional activity (GFP+/GFP- enrichment relative to wild-type constructs) (ratio to WT); higher = more THAP1 activity (PSMB5 reporter activation)
Conditions: with PSMB5 promoter-GFP reporter
Procedure: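 Deep mutational scan of human THAP1. Site-saturation single amino acid variant library (residues 2-213) was expressed by lentivirus at MOI ~0.3 in THAP1-knockout HEK-293T cells carrying an endogenous PSMB5 promoter-GFP knock-in reporter. Five days post-transduction, BFP+ cells were FACS-sorted into GFP dim and GFP bright populations and variants were counted by Illumina sequencing. Activity is the GFP-bright/GFP-dim read fold change, mean of 2 replicates, divided by the mean fold change of wild-type (synonymous) constructs in the same screen pool; WT = 1.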

| Variant | THAP1 transcriptional activity |
| --- | --- |
| E195S | 1.16 |
| Y205C | 1.28 |
| S51T | 0.421 |
| L82R | 0.825 |
| L82S | 0.94 |
| K34V | 0.529 |
| K34Y | 0.316 |
| D191T | 1.12 |
| K16M | 0.105 |
| K16T | 0.136 |
| K16Q | 0.164 |
| Q167A | 0.311 |
| Q167D | 0.239 |
| Q167T | 0.585 |
| Q187C | 0.911 |
| E210A | 0.354 |
| E210S | 0.594 |
| E35H | 0.328 |
| E35V | 0.479 |
| K73M | 0.543 |
| K73N | 0.522 |
| D88H | 0.413 |
| D88V | 0.781 |
| D88M | 0.615 |

| Variant | THAP1 transcriptional activity |
| --- | --- |
| D88Q | 1.12 |
| P60K | 0.834 |
| Q145H | 0.747 |
| Q145A | 1.08 |
| Q145T | 1.05 |
| Q145C | 0.357 |
| K164Y | 0.307 |
| K164A | 0.337 |
| K161D | 0.188 |
| K161S | 0.639 |
| R13T | 0.147 |
| S6Q | 0.103 |
| D134Q | 0.0618 |
| S21R | 0.131 |
| L71R | 0.39 |
| L119C | 0.404 |
| L119E | 1.03 |
| I200R | 0.412 |
| I200H | 0.546 |
| I200F | 0.819 |
| V209P | 0.814 |
| N136F | 0.279 |
| V127H | 0.843 |
| V127K | 1.64 |

| Variant | THAP1 transcriptional activity |
| --- | --- |
| E56W | 0.249 |
| E56M | 0.509 |
| E56G | 0.114 |
| H23T | 0.0534 |
| H23A | 0.116 |
| H23N | 0.0799 |
| H23M | 0.0825 |
| H23K | 0.125 |
| P103T | 1.19 |
| C170T | 0.457 |
| D204H | 0.501 |
| K190S | 0.846 |
| K11V | 0.529 |
| K11P | 0.178 |
| I116C | 0.903 |
| I116Y | 0.918 |
| K24P | 0.125 |
| K24R | 1.73 |
| R41N | 0.809 |
| R41K | 1.05 |
| R41Y | 0.274 |
| F132D | 0.363 |
| F132L | 1.12 |
| N69Q | 0.143 |

| Variant | THAP1 transcriptional activity |
| --- | --- |
| N69A | 0.111 |
| K70A | 0.434 |
| K70H | 0.709 |
| K70G | 0.0856 |
| K70Q | 0.437 |
| K179D | 0.403 |
| K179P | 0.213 |
| N75P | 0.241 |
| P19G | 0.547 |
| E95C | 1.23 |
| E95G | 1.26 |
| E95K | 1.66 |
| H57V | 0.105 |
| G197D | 0.656 |
| G197R | 0.711 |
| E85Y | 0.792 |
| E85A | 0.937 |
| K18F | 0.11 |
| A213D | 0.729 |
| A213F | 0.655 |
| A213K | 1.13 |
| N12Q | 0.22 |
| N12D | 0.0987 |
| V109F | 0.884 |

| Variant | THAP1 transcriptional activity |
| --- | --- |
| V109Q | 1.24 |
| V109C | 1.49 |
| T28Y | 0.137 |
| T28C | 0.495 |
| T28I | 0.198 |
| L27R | 0.23 |
| L27W | 0.263 |
| L27G | 0.0873 |
| V184C | 0.742 |
| Q97Y | 0.765 |
| Q97P | 1.25 |
| Q97F | 1.2 |
| L177H | 0.327 |
| L177F | 0.408 |
| L177T | 0.255 |
| E153Q | 0.585 |
| R148K | 1.02 |
| T48G | 0.419 |
| T48L | 0.115 |
| K147P | 0.502 |
| I80G | 0.55 |
| I80N | 0.429 |
| I80V | 0.963 |
| P121A | 1.18 |

| Variant | THAP1 transcriptional activity |
| --- | --- |
| P121Q | 0.491 |
| P121G | 0.454 |
| Y8C | 0.192 |
| F206K | 1.08 |
| F206T | 1.04 |
| F206I | 1.27 |
| I53Q | 0.0507 |
| V211H | 1.29 |
| L32T | 0.295 |
| L32V | 0.794 |
| L32I | 0.906 |
| C5R | 0.132 |
| P126Q | 0.962 |
| P126H | 0.531 |
| P126T | 0.484 |
| R160F | 0.252 |
| P102H | 1.04 |
| P102F | 0.858 |
| P102T | 0.743 |
| C133R | 1.24 |
| C133G | 0.883 |
| R172W | 0.267 |
| Q111N | 0.81 |
| Q111E | 0.762 |

| Variant | THAP1 transcriptional activity |
| --- | --- |
| P86T | 0.609 |
| P86S | 0.97 |
| T84C | 0.907 |
| F186L | 1.31 |
| F186T | 1.21 |
| F186P | 1.48 |
| Y50E | 0.108 |
| Y50T | 0.13 |
| A114V | 0.296 |
| A114M | 0.387 |
| A114E | 0.768 |
| A76L | 0.476 |
| K188Q | 0.954 |
| K188Y | 0.683 |
| L118H | 1.01 |
| L118W | 0.319 |
| E207Q | 1.02 |
| E207P | 0.59 |
| E207G | 0.488 |
| P26N | 0.147 |
| P26S | 0.0994 |
| K181L | 0.421 |
| V77F | 0.325 |

Reference: the supplement of paper PMC11811203
